According to patent US20260055205A1 (published 2026):

T1: cynomolgus monkey CD3 epsilon (cynomolgus monkey, UniProt Q95LI5 22-117, limits assumed)
T1 construct: also called cyCD3e; cyno CD3
T1 sequence (looked up): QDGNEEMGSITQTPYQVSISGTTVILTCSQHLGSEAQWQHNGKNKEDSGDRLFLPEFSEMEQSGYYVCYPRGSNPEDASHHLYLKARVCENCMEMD


Assays:
[1] = molecular target: T2, cynomolgus monkey PSMA (cynomolgus monkey, UniProt A0A2K5VNZ0 44-750); assay: Biacore
T2 construct: also called cyPSMA; cyno PSMA

[2] = molecular target: T3, human PSMA (human, UniProt Q04609 44-750, limits assumed); assay: Biacore
T3 construct: also called huPSMA; hPSMA

[3] = molecular target: T4, human CD3 epsilon (human, UniProt P07766 23-126, limits assumed); assay: Octet
T4 construct: also called huCD3e

[4] = molecular target: T1, cynomolgus monkey CD3 epsilon; assay: Octet
[5] = molecular target: T4, human CD3 epsilon; assay: Biacore
[6] = molecular target: T1, cynomolgus monkey CD3 epsilon; assay: Biacore
[7] = molecular target: T2, cynomolgus monkey PSMA; assay: Octet
[8] = molecular target: T3, human PSMA; assay: Octet
[9] = molecular target: T3, human PSMA; assay: relative binding to PSMA, uTCE
[10] = molecular target: T5, human PSMA-Fc (human, UniProt Q04609 44-750); assay: Octet
T5 construct: also called Human PSMA-Fc fusion

[11] = molecular target: T5, human PSMA-Fc; assay: Octet; remark: listed apart in the source
[12] = molecular target: T5, human PSMA-Fc; assay: Octet, PSMA-Fc
Description: Binding affinity of select PSMA PTE variants was tested by Octet.

[13] = molecular target: T3, human PSMA; assay: binding screen
[14] = molecular target: T3, human PSMA; assay: binding kinetics, uTCE

T5 sequence (Q04609 44-750 limits assumed): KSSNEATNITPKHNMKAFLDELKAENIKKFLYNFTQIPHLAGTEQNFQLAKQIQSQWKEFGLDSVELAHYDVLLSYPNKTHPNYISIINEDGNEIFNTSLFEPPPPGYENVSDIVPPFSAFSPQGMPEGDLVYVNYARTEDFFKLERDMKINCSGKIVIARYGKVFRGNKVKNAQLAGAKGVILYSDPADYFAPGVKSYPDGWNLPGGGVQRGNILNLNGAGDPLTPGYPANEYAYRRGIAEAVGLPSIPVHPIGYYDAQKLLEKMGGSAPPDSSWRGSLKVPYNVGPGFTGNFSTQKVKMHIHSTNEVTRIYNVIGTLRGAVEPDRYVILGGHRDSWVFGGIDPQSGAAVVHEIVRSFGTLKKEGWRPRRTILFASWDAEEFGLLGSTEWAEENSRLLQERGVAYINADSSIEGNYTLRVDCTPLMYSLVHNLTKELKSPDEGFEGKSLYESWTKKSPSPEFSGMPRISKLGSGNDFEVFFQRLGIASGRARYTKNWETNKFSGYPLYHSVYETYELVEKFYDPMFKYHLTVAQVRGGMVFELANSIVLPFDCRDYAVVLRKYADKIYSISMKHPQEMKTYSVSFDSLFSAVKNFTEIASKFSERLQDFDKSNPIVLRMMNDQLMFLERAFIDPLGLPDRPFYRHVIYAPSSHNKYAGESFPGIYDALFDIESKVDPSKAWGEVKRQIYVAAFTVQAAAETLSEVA
T3 sequence (Q04609 44-750 limits assumed): as above
T4 sequence (P07766 23-126 limits assumed): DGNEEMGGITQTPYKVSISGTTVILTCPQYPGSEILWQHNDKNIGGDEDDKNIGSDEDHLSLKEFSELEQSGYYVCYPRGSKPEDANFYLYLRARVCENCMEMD

Row | Binder | Kd [10] [nM] | koff [10] [s⁻¹] | kon [10] [M⁻¹ s⁻¹] | Kd [11] [nM] | Kd [12] [nM] | koff [12] [s⁻¹] | kon [12] [M⁻¹ s⁻¹] | also measured
1 | uTCE from AC3928 (bispecific antibody, also called AMX500-P6 uTCE; PSMA.350-CD3.23) QVQLVESGGGVVQPGRSLRLSCAASGRTFGIYVWGWFRQAPGKEREFVGAMSWSGSNRKVSDSVKGRFTISRDNSKNTLYLQMNSLRAEDTAVYYCAASNKEYGRTWYDFNESDYWGQGTQVTVSSGGGGSGGGSELVVTQEPSLTVSPGGTVTLTCRSSNGAVTSSNYANWVQQKPGQAPRGLIGGTNKRAPGTPARFSGSLLGGKAALTLSGVQPEDEAVYYCALWYPNLWVFGGGTKLTVLSESATPESGPGTSPGATPESGPGTSESATPEVQLLESGGGIVQPGGSLKLSCAASGFTFNTYAMNWVRQAPGKGLEWVARIRSKYNNYATYYADSVKDRFTISRDDSKNTVYLQMNNLKTEDTAVYYCVRHENFGNSYVSWFAHWGQGTLVTVSS | – | – | – | – | – | – | – | Kd [1]: 354 nM; Kd [2]: 19 nM; Kd [3]: 43 nM; Kd [4]: 44.9 nM; Kd [5]: 27.3 nM; Kd [6]: 26.6 nM; Kd [7]: 198 nM; Kd [8]: 13.2 nM
2 | uTCE from AC3934 (bispecific antibody, also called AMX500-P7 uTCE; PSMA.262-CD3.228) QVQLVESGGGVVQPGRSLRLSCAASGRTFGIYVWGWVRQAPGKEREFVGAISWSGSNRKVSDSVKGRFTISRDNSKNTLYLQMNSLRAEDTAVYYCAASNKLYGRTWYDFNESDYWGQGTQVTVSSGGGGSGGGSELVVTQEPSLTVSPGGTVTLTCRSSNGAVTSSNYANWVQQKPGQAPRGLIGGTNKRAPGTPARFSGSLLGGKAALTLSGVQPEDEAVYYCALWYPNLWVFGGGTKLTVLSESATPESGPGTSPGATPESGPGTSESATPEVQLVESGGGIVQPGGSLRLSCAASGFTFSTYAMNWVRQAPGKGLEWVGRIRTKRNNYATYYADSVKGRFTISRDDSKNTVYLQMNSLKTEDTAVYYCVRHENFGNSYVSWFAHWGQGTLVTVSS | – | – | – | – | – | – | – | Kd [1]: 13 nM; Kd [2]: 0.5 nM; Kd [3]: 26.6 nM; Kd [4]: 33.7 nM; Kd [5]: 9.83 nM; Kd [6]: 10.4 nM; Kd [7]: 13.1 nM; Kd [8]: 1.6 nM
3 | uTCE of AC2755 (bispecific antibody, V domains shown, TCE with CD3.23; also called VHH41) VH: QVQLVESGGGVVQPGRSLRLSCAASGRTFDVYAMGWVRQAPGKERELVAAINWSGSNKFHADSVKGRFTISRDNSKNTLYLQMNSLKTEDTAMYFCAASTRLYGTTWYEFNDSDYWGQGTQVTVSS | – | – | – | – | – | – | – | binding result [9]: binds
4 | uTCE of AC3356 (bispecific antibody, CD3.23 in VH-VL order; also called PSMA.5 (domain swap)) QVQLVESGGGVVQPGRSLRLSCAASGRTFGIYVMGWVRQAPGKEREFVAAISWSGSNRLVSDSVKGRFTISRDNSKNTLYLQMNSLRAEDTAVYYCAASNRLYGRTWYDFNESDYWGQGTQVTVSSGGGGSGGGSEVQLLESGGGIVQPGGSLKLSCAASGFTFNTYAMNWVRQAPGKGLEWVARIRSKYNNYATYYADSVKDRFTISRDDSKNTVYLQMNNLKTEDTAVYYCVRHENFGNSYVSWFAHWGQGTLVTVSSGATPPETGAETESPGETTGGSAESEPPGEGELVVTQEPSLTVSPGGTVTLTCRSSNGAVTSSNYANWVQQKPGQAPRGLIGGTNKRAPGTPARFSGSLLGGKAALTLSGVQPEDEAVYYCALWYPNLWVFGGGTKLTVL | 2.4 | 0.00018 | 76000 | 2.4 | – | – | – | –
5 | uTCE of AC3265 (bispecific antibody, Linker given only as 9 residues; also called PSMA.55) QVQLVESGGGVVQPGRSLRLSCAASGRTFGIYVMGWYRQAPGKEREFVAAISWSGSNRLVSDSVKGRFTISRDNSKNTLYLQMNSLRAEDTAVYYCAASNRLYGRTWYDFNESDYWGQGTQVTVSSGGGGSGGGSELVVTQEPSLTVSPGGTVTLTCRSSNGAVTSSNYANWVQQKPGQAPRGLIGGTNKRAPGTPARFSGSLLGGKAALTLSGVQPEDEAVYYCALWYPNLWVFGGGTKLTVLGATPPETGAETESPGETTGGSAESEPPGEGEVQLLESGGGIVQPGGSLKLSCAASGFTFNTYAMNWVRQAPGKGLEWVARIRSKYNNYATYYADSVKDRFTISRDDSKNTVYLQMNNLKTEDTAVYYCVRHENFGNSYVSWFAHWGQGTLVTVSS | – | – | – | 2.7 | 2.7 | 0.00028 | 104000 | –
6 | uTCE of AC3329 (bispecific antibody, also called PSMA.119) QVQLVESGGGVVQPGRSLRLSCAASGRTFGIYVMGWVRQAPGKEREFVAAISWSGSNRKVSDSVKGRFTISRDNSKNTLYLQMNSLRAEDTAVYYCAASNRLYGRTWYDFNESDYWGQGTQVTVSSGGGGSGGGSELVVTQEPSLTVSPGGTVTLTCRSSNGAVTSSNYANWVQQKPGQAPRGLIGGTNKRAPGTPARFSGSLLGGKAALTLSGVQPEDEAVYYCALWYPNLWVFGGGTKLTVLGATPPETGAETESPGETTGGSAESEPPGEGEVQLLESGGGIVQPGGSLKLSCAASGFTFNTYAMNWVRQAPGKGLEWVARIRSKYNNYATYYADSVKDRFTISRDDSKNTVYLQMNNLKTEDTAVYYCVRHENFGNSYVSWFAHWGQGTLVTVSS | – | – | – | 3.2 | 3.2 | 0.000248 | 80000 | Kd [13]: 4.1 nM
7 | uTCE of AC3342 (bispecific antibody, Linker given only as 9 residues; also called PSMA.132) QVQLVESGGGVVQPGRSLRLSCAASGRTFGIYVMGWVRQAPGKEREFVAAISWSGSNRLVSDSVKGRFTISRDNSKNTLYLQMNSLRAEDTAVYYCAASNKLYGRTWYDFNESDYWGQGTQVTVSSGGGGSGGGSELVVTQEPSLTVSPGGTVTLTCRSSNGAVTSSNYANWVQQKPGQAPRGLIGGTNKRAPGTPARFSGSLLGGKAALTLSGVQPEDEAVYYCALWYPNLWVFGGGTKLTVLGATPPETGAETESPGETTGGSAESEPPGEGEVQLLESGGGIVQPGGSLKLSCAASGFTFNTYAMNWVRQAPGKGLEWVARIRSKYNNYATYYADSVKDRFTISRDDSKNTVYLQMNNLKTEDTAVYYCVRHENFGNSYVSWFAHWGQGTLVTVSS | – | – | – | 5.6 | 5.6 | 0.000479 | 86600 | –
8 | uTCE of AC2591 (PSMA-VHH; CB01H01R3, CD3.23) (bispecific antibody, also called PSMA.2) LTGPATSGSETPGTEVQLVESGGGSVQAGGSLSLSCVASGRTFGIYVMGWFRQAPGKEREFVAAISWSGSNRLVSDSVKGRFTISRENAKNTIYLQMNGLKPEDTANYFCAASNRLYGRTWYDFNESDYWGQGTQVTVSSGGGGSGGGSELVVTQEPSLTVSPGGTVTLTCRSSNGAVTSSNYANWVQQKPGQAPRGLIGGTNKRAPGTPARFSGSLLGGKAALTLSGVQPEDEAVYYCALWYPNLWVFGGGTKLTVLGATPPETGAETESPGETTGGSAESEPPGEGEVQLLESGGGIVQPGGSLKLSCAASGFTFNTYAMNWVRQAPGKGLEWVARIRSKYNNYATYYADSVKDRFTISRDDSKNTVYLQMNNLKTEDTAVYYCVRHENFGNSYVSWFAHWGQGTLVTVSSGTAEAASASGEAGRSANHTPAG | 1 | 0.00012 | 120000 | 1 | 1 | 0.000122 | 125000 | Kd [14]: 0.79 nM; koff [14]: 8.7e-05 s⁻¹; kon [14]: 110000 M⁻¹ s⁻¹
9 | uTCE of AC3353 (bispecific antibody, also called PSMA.5 (5 mer)) QVQLVESGGGVVQPGRSLRLSCAASGRTFGIYVMGWVRQAPGKEREFVAAISWSGSNRLVSDSVKGRFTISRDNSKNTLYLQMNSLRAEDTAVYYCAASNRLYGRTWYDFNESDYWGQGTQVTVSSGGGGSELVVTQEPSLTVSPGGTVTLTCRSSNGAVTSSNYANWVQQKPGQAPRGLIGGTNKRAPGTPARFSGSLLGGKAALTLSGVQPEDEAVYYCALWYPNLWVFGGGTKLTVLGATPPETGAETESPGETTGGSAESEPPGEGEVQLLESGGGIVQPGGSLKLSCAASGFTFNTYAMNWVRQAPGKGLEWVARIRSKYNNYATYYADSVKDRFTISRDDSKNTVYLQMNNLKTEDTAVYYCVRHENFGNSYVSWFAHWGQGTLVTVSS | 2.1 | 0.00022 | 110000 | 2.1 | – | – | – | –
10 | uTCE of AC3354 (bispecific antibody, also called PSMA.5 (15 mer)) QVQLVESGGGVVQPGRSLRLSCAASGRTFGIYVMGWVRQAPGKEREFVAAISWSGSNRLVSDSVKGRFTISRDNSKNTLYLQMNSLRAEDTAVYYCAASNRLYGRTWYDFNESDYWGQGTQVTVSSGATPPETGAETESPGELVVTQEPSLTVSPGGTVTLTCRSSNGAVTSSNYANWVQQKPGQAPRGLIGGTNKRAPGTPARFSGSLLGGKAALTLSGVQPEDEAVYYCALWYPNLWVFGGGTKLTVLGATPPETGAETESPGETTGGSAESEPPGEGEVQLLESGGGIVQPGGSLKLSCAASGFTFNTYAMNWVRQAPGKGLEWVARIRSKYNNYATYYADSVKDRFTISRDDSKNTVYLQMNNLKTEDTAVYYCVRHENFGNSYVSWFAHWGQGTLVTVSS | 3.5 | 0.00027 | 77000 | 3.5 | – | – | – | –
11 | uTCE from AC3445 (bispecific antibody, also called PSMA.119-CD3.23) QVQLVESGGGVVQPGRSLRLSCAASGRTFGIYVMGWVRQAPGKEREFVAAISWSGSNRKVSDSVKGRFTISRDNSKNTLYLQMNSLRAEDTAVYYCAASNRLYGRTWYDFNESDYWGQGTQVTVSSGGGGSGGGSELVVTQEPSLTVSPGGTVTLTCRSSNGAVTSSNYANWVQQKPGQAPRGLIGGTNKRAPGTPARFSGSLLGGKAALTLSGVQPEDEAVYYCALWYPNLWVFGGGTKLTVLSESATPESGPGTSPGATPESGPGTSESATPEVQLLESGGGIVQPGGSLKLSCAASGFTFNTYAMNWVRQAPGKGLEWVARIRSKYNNYATYYADSVKDRFTISRDDSKNTVYLQMNNLKTEDTAVYYCVRHENFGNSYVSWFAHWGQGTLVTVSS | – | – | – | – | – | – | – | Kd [3]: 34.8 nM; Kd [4]: 40 nM; Kd [7]: 47.5 nM; Kd [8]: 6.2 nM
